Experimental data taken from PMC4108507 (Journal of immunology (Baltimore, Md. : 1950), 2014).

Biological target: HA-DHX15, full-length recombinant protein (murine, UniProt O35286 1-795)
Experiment: pull-down

Chain of HA-DHX15, full-length recombinant protein (O35286 whole entry): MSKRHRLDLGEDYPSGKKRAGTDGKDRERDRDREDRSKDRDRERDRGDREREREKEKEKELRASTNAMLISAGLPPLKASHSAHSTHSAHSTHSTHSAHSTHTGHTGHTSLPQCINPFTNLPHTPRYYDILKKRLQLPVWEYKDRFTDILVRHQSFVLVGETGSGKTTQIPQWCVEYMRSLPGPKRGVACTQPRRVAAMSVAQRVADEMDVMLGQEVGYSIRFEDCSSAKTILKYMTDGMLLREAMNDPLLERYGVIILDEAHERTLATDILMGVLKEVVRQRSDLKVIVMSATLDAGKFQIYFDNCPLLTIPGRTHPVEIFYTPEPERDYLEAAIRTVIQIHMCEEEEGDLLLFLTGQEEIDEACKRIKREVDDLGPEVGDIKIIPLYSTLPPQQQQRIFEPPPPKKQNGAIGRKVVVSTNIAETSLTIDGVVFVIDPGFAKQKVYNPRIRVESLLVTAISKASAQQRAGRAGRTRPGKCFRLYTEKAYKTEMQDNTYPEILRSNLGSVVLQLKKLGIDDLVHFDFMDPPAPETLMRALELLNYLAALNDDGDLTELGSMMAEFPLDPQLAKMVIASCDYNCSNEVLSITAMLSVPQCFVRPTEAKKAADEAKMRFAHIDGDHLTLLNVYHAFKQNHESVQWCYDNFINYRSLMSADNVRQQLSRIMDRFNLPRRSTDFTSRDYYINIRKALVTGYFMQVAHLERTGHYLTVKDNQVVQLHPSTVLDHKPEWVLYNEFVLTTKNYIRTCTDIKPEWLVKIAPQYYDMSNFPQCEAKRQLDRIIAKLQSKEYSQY

B1: Myc-MAVS, full-length recombinant protein (natural protein, murine, UniProt Q8VCF0 1-503, looked up)
chain: MTFAEDKTYKYIRDNHSKFCCVDVLEILPYLSCLTASDQDRLRASYRQIGNRDTLWGLFNNLQRRPGWVEVFIRALQICELPGLADQVTRVYQSYLPPGTSLRSLEPLQLPDFPAAVSGPSAFAPGHNIPDHGLRETPSCPKPVQDTQPPESPVENSEQLLQTNSGAVARMSGGSLIPSPNQQALSPQPSREHQEQEPELGGAHAANVASVPIATYGPVSPTVSFQPLPRTALRTNLLSGVTVSALSADTSLSSSSTGSAFAKGAGDQAKAATCFSTTLTNSVTTSSVPSPRLVPVKTMSSKLPLSSKSTAAMTSTVLTNTAPSKLPSNSVYAGTVPSRVPASVAKAPANTIPPERNSKQAKETPEGPATKVTTGGNQTGPNSSIRSLHSGPEMSKPGVLVSQLDEPFSACSVDLAISPSSSLVSEPNHGPEENEYSSFRIQVDESPSADLLGSPEPLATQQPQEEEEHCASSMPWAKWLGATSALLAVFLAVMLYRSRRLAQ
Question: Does B1 bind?
Answer: Result: binds
